Data reported in patent publication US20230272011A1 (AVACTA LIFE SCIENCES, published 2023).
Values belong to the binder of their own block, whether it stands above or below them.

Assays:
[1] = target: T1, human serum albumin (human, UniProt P02768 25-609); experiment: binding ELISA on coated albumin, pH 6.0, panel 'HSA Binding at pH 6.0'
T1 construct: mature; Bought protein; biotinylated in the Octet and HTRF assays; also called HSA; HuSA
Protocol: (§1) Briefly, ELISA was performed as follow:
(§2) Human (Sigma-Aldrich); Cynomolgus and Mouse (Abcam); Equine (Abcam); Canine (Abcam); Mouse (Sigma-Aldrich); Rabbit (Sigma-Aldrich); Porcine (Sigma-Aldrich);, and Rat (Sigma-Aldrich) serum albumin were coated overnight on 96 well plates (Corning Costar) at 1 μg/ml in PBS at the appropriate pH (pH 6.0 or 7.4). Plates were saturated using 5% Casein (Sigma-Aldrich) buffer in PBS. […] Plates were then washed and AFFIMER® proteins were detected using a biotinylated polyclonal antibody anti-Cystatin (R&D System) for 90 minutes. After washing, streptavidin-HRP (Thermo Fisher Scientific) was added and incubated for 30 minutes.

[2] = target: T2, canine serum albumin (canine, UniProt P49822 25-608); experiment: binding ELISA on coated albumin, pH 6.0, panel 'Canine SA Binding at pH 6.0'
T2 sequence (P49822 25-608 limits assumed): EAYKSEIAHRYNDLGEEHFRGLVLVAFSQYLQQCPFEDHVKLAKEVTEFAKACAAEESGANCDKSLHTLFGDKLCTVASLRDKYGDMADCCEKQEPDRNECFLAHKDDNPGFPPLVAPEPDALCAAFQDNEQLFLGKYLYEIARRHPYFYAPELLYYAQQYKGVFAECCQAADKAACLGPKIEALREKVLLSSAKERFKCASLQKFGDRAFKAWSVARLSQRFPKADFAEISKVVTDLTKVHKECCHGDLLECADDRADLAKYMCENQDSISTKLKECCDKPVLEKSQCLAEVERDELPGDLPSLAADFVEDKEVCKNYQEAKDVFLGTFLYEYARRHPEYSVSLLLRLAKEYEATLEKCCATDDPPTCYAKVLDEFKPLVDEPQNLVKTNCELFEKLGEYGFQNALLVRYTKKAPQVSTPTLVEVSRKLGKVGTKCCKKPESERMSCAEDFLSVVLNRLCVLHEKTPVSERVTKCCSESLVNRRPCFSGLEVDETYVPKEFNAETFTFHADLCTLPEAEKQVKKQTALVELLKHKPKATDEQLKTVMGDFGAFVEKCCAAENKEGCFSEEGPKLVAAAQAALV
Protocol: as §1, §2

[3] = target: T1, human serum albumin; experiment: Biacore, immobilised HSA, running buffer pH 6.0
Source text: (§3) […] Fc2-1, Fc3-1 and Fc4-1 kinetic data was blank subtracted and fit to a 1:1 Langmuir binding model (BIAcore Evalution software; GE) to calculate KD values.

[4] = target: T1, human serum albumin; experiment: SPR (Biacore T200), albumin amine-coupled to CM5, Affimer analyte, pH 7.4
Protocol: (§4) Affinities for mouse, human, and cynomolgus serum were also measured at pH 7.4 for four (4) AFFIMER® binders using surface plasmon resonance (SPR) (FIG. 5, Table 5). […] A concentration titration of AFFIMER® monomers was run as analyte at a flow rate of 30 μl/min or 60 μl/min. Fc2-1, Fc3-1 and Fc4-1 kinetic data was blank subtracted and fit to a 1:1 Langmuir binding model (BIAcore Evalution software; GE) to calculate KD values.

[5] = target: T3, mouse serum albumin (mouse, UniProt P07724 25-608); experiment: as above
T3 construct: also called MSA
T3 sequence (P07724 25-608 limits assumed): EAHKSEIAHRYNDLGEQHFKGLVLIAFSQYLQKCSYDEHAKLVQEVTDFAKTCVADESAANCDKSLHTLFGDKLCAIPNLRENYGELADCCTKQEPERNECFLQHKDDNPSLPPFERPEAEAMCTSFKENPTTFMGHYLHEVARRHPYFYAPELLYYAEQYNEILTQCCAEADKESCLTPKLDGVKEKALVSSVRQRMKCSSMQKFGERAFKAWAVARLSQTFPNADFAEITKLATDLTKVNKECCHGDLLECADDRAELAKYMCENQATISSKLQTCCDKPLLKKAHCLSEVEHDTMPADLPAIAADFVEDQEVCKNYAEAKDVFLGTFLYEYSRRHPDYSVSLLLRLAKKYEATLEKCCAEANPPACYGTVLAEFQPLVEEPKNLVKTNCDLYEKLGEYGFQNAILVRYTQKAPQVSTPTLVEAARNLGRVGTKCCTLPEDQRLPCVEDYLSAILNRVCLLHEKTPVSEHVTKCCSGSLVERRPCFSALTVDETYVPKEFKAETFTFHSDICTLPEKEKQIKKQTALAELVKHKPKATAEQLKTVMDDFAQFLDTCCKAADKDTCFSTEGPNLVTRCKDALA
Protocol: as §4

[6] = target: T4, cynomolgus serum albumin (cynomolgus); experiment: as above
T4 construct: also called CSA; cyno serum albumin
T4 sequence (A2V9Z4 25-608): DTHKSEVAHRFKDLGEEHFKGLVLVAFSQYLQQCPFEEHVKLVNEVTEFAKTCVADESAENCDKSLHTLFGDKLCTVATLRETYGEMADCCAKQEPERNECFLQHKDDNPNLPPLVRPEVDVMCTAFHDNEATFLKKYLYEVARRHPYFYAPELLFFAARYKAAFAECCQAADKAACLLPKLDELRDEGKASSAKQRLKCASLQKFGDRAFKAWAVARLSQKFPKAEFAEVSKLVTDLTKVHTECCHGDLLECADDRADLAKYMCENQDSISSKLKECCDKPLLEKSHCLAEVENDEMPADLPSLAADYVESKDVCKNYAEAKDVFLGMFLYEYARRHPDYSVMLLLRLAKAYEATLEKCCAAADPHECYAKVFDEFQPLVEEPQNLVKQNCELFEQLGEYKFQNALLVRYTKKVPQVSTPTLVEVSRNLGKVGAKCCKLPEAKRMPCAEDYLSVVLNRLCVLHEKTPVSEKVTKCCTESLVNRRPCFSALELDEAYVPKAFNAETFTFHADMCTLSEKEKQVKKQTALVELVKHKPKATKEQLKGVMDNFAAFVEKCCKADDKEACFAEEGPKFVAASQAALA
Protocol: as §4

[7] = target: T3, mouse serum albumin; experiment: Biacore, immobilised MSA, pH 6.0
Source text: as §3

[8] = target: T1, human serum albumin; experiment: BLI (Octet), biotinylated albumin on SA sensor, pH 6.0
Protocol: (§5) Biotinylated antigen was captured onto SA sensors at 1 μg/ml for 600 seconds in a buffer comprising PBS-T (0.01% Tween 20)+1% casein at either pH 6.0 or 7.4. Association was carried out for 300 seconds and dissociation for 600 seconds, and regeneration was performed using 10 mM glycine pH 1.5 (GE Healthcare) for 3×5 seconds. All steps were carried out at 1000 rpm and 25° C. Purified AFFIMER® polypeptide in two-fold serial dilutions was analyzed at a starting concentration of approximately 10× K_{D value}. Kinetics analyses were carried out using the Octet data analysis software, subtracting the reference sensor (loaded with antigen), aligning the Y-axis to baseline, and using inter-step correction to align association to dissociation. Savitzky-Golay filtering was applied and the data processed. Analysis of the data was carried out with a 1:1 model, global fit, Rₘₐₓ unlinked by sensor.

[9] = target: T3, mouse serum albumin; experiment: as above
Protocol: as §5

[10] = target: T4, cynomolgus serum albumin; experiment: as above
Protocol: as §5

[11] = target: T1, human serum albumin; experiment: BLI (Octet), biotinylated albumin on SA sensor, pH 7.4
Protocol: as §5

[12] = target: T3, mouse serum albumin; experiment: as above
Protocol: as §5

[13] = target: T4, cynomolgus serum albumin; experiment: as above
Protocol: as §5

[14] = target: T5, rat serum albumin (rat, UniProt P02770 25-608); experiment: binding ELISA on coated albumin, pH 6.0, panel 'Rat SA Binding at pH 6.0'
T5 sequence (P02770 25-608 limits assumed): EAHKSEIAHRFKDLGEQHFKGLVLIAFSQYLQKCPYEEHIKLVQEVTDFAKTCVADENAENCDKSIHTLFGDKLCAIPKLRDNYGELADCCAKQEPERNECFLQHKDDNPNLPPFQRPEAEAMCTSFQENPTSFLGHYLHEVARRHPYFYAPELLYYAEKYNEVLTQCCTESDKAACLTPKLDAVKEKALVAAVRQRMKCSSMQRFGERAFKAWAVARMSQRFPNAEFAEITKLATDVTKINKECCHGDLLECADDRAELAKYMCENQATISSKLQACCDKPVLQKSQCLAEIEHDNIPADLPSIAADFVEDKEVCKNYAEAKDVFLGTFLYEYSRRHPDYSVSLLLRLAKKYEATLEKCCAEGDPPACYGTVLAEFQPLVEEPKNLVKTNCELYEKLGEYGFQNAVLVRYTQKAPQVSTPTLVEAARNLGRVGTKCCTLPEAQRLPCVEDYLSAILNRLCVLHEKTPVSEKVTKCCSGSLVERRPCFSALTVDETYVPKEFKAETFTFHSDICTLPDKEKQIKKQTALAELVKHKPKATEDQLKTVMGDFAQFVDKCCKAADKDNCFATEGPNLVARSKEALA
Protocol: as §1, §2

[15] = target: T6, equine serum albumin (equine, UniProt P35747 25-607); experiment: binding ELISA on coated albumin, pH 7.4, panel 'Equine SA Binding at pH 7.4' (Table 6 gives NA for this pair)
T6 sequence (P35747 25-607 limits assumed): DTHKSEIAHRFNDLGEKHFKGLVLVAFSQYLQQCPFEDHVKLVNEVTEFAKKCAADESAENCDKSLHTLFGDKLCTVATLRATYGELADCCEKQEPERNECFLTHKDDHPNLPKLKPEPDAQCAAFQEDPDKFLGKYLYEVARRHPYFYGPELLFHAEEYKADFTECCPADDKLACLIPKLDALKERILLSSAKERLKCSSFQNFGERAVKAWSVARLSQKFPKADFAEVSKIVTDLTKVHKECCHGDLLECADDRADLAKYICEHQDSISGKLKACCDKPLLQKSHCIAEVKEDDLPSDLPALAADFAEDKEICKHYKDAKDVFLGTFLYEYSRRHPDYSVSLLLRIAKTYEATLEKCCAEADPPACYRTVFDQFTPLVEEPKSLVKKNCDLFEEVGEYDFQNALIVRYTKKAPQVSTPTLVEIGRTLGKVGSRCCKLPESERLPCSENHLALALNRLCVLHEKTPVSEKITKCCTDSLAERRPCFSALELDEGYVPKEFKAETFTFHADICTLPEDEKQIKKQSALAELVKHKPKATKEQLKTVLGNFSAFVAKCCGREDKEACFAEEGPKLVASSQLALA
Protocol: as §1, §2

[16] = target: T1, human serum albumin; experiment: Biacore, immobilised HSA, running buffer pH 7.4
Protocol: as §4

[17] = target: T4, cynomolgus serum albumin; experiment: binding ELISA on coated albumin, pH 6.0, panel 'CSA Binding at pH 6.0'
Protocol: as §1, §2

[18] = target: T7, porcine serum albumin (porcine, UniProt P08835 25-607); experiment: binding ELISA, coated albumin, pH 7.4
T7 sequence (P08835 25-607 limits assumed): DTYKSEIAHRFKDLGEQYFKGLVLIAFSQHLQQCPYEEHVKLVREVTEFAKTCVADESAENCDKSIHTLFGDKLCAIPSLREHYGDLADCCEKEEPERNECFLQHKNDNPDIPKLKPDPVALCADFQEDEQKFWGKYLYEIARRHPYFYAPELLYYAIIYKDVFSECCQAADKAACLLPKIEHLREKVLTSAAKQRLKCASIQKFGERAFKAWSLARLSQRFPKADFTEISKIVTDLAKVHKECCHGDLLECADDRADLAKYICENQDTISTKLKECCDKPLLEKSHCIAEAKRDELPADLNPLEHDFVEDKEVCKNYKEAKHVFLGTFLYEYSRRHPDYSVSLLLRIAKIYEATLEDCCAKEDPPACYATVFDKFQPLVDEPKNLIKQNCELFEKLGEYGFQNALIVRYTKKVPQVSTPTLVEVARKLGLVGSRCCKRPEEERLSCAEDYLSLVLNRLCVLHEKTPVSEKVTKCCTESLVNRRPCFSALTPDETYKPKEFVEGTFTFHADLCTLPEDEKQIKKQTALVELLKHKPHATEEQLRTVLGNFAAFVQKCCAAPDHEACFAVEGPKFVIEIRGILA
Protocol: as §1, §2

[19] = target: T1, human serum albumin; experiment: binding ELISA, coated albumin, pH 7.4
Protocol: as §1, §2

[20] = target: T4, cynomolgus serum albumin; experiment: binding ELISA, coated albumin, pH 7.4
Protocol: as §1, §2

[21] = target: T2, canine serum albumin; experiment: binding ELISA, coated albumin, pH 7.4
Protocol: as §1, §2

[22] = target: T5, rat serum albumin; experiment: binding ELISA, coated albumin, pH 7.4
Protocol: as §1, §2

[23] = target: rabbit serum albumin (rabbit, UniProt P49065 25-608); experiment: binding ELISA, coated albumin, pH 7.4
Sequence of rabbit serum albumin (P49065 25-608 limits assumed): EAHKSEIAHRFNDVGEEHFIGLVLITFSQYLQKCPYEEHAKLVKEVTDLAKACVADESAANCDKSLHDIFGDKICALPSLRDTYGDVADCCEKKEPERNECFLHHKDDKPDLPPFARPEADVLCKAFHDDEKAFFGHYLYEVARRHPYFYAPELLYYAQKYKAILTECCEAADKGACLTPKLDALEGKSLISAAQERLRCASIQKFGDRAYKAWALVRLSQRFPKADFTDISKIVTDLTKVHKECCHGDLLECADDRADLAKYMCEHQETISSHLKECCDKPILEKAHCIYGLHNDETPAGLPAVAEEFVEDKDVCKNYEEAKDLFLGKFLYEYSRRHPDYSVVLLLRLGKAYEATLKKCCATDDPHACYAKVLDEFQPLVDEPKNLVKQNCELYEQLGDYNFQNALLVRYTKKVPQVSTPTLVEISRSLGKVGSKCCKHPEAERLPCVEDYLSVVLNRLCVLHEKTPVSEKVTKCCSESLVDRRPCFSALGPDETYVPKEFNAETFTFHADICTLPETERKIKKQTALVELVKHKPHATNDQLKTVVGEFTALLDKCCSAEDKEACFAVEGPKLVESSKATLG
Protocol: as §1, §2

[24] = target: T1, human serum albumin; experiment: Octet biolayer interferometry, biotinylated albumin on SA sensors, pH 6.0
Protocol: as §5

[25] = target: T3, mouse serum albumin; experiment: as above
Protocol: as §5

[26] = target: T4, cynomolgus serum albumin; experiment: as above
Protocol: as §5

[27] = target: T1, human serum albumin; experiment: Octet biolayer interferometry, biotinylated albumin on SA sensors, pH 7.4
Protocol: as §5

[28] = target: T3, mouse serum albumin; experiment: as above
Protocol: as §5

[29] = target: T4, cynomolgus serum albumin; experiment: as above
Protocol: as §5

[30] = target: T3, mouse serum albumin; experiment: binding ELISA on coated albumin, pH 6.0, panel 'MSA Binding at pH 6.0'
Protocol: as §1, §2

[31] = target: T7, porcine serum albumin; experiment: binding ELISA on coated albumin, pH 6.0, panel 'Porcine SA Binding at pH 6.0'
Protocol: as §1, §2

[32] = target: T3, mouse serum albumin; experiment: binding ELISA, coated albumin, pH 7.4
Protocol: as §1, §2

[33] = target: T6, equine serum albumin; experiment: binding ELISA, coated albumin, pH 7.4
Protocol: as §1, §2

[34] = target: T1, human serum albumin; experiment: Biacore sensorgram on serum albumin (HSA)
[35] = target: T8, human PD-L1-Fc (R&D Systems) chimeric protein (human, UniProt Q9NZQ7 19-239); experiment: Biacore single cycle kinetics on human PD-L1 Fc
T8 construct: Bought reagent; also called rhPD-L1-Fc; huPD-L1; Fc part of the bought chimera not given, not described
T8 sequence (Q9NZQ7 19-239, change not shown): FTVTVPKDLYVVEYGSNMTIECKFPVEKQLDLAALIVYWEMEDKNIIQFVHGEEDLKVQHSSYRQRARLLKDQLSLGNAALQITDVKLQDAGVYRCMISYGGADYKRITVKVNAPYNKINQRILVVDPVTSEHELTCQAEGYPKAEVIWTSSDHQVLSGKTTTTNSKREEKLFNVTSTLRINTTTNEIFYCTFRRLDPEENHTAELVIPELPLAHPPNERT

[36] = target: T1, human serum albumin; experiment: binding ELISA on coated HSA, pH 7.4
Protocol: (§6) After saturation with 5% PBS Casein pH 7.5, plates were washed and a dilution of AFFIMER® trimers or controls were incubated on the plate for 90 minutes. Plates were then washed, and a biotinylated polyclonal antibody anti-cystatin A (R&D Systems) was added for 1 hour. Plates were washed and AFFIMER® ILFs were detected using streptavidin-HRP. After a last washing step, TMB was added for the development of the experiment, and the plates were read at 450 nm.

[37] = target: T3, mouse serum albumin; experiment: binding ELISA on coated MSA, pH 7.4
Protocol: as §6

- EC50 (read off the curve) [1]: ~0.2 nM
- EC50 (read off the curve) [2]: ~10 nM
- Kd [3]: 152 nM
- koff [3]: 0.0122 s⁻¹
- kon [3]: 80000 M⁻¹ s⁻¹
- Kd [4]: 146 nM
- koff [4]: 0.00789 s⁻¹
- kon [4]: 54100 M⁻¹ s⁻¹
- Kd [5]: 2180 nM
- koff [5]: 0.0742 s⁻¹
- kon [5]: 34100 M⁻¹ s⁻¹
- Kd [6]: 542 nM
- koff [6]: 0.0261 s⁻¹
- kon [6]: 48300 M⁻¹ s⁻¹
- Kd [7]: 49.4 nM
- koff [7]: 0.0298 s⁻¹
- kon [7]: 602000 M⁻¹ s⁻¹
- Kd [8]: 17.9 nM
- Kd [9]: 618 nM
- Kd [10]: 68.7 nM
- Kd [11]: 36.1 nM
- Kd [12]: 981 nM
- Kd [13]: 106 nM
- EC50 (read off the curve) [14]: ~3 nM
- binding result [15]: binds
- Kd [16]: 109 nM
- koff [16]: 0.0078 s⁻¹
- kon [16]: 71400 M⁻¹ s⁻¹
- EC50 (read off the curve) [17]: ~0.1 nM
- EC50 [18]: 615 nM
- EC50 [19]: 1.41 nM
- EC50 [20]: 7.14 nM
- EC50 [21]: 96.5 nM
- EC50 [22]: 89.4 nM
- EC50 [23]: 847 nM
B1: HSA-18 (designed binder)
chain: MIPRGLSEAKPATPEIQEIVDKVKPQLEEKTNETYGKLEAVQYKTQVLADWWQAKWPHSTNYYIKVRAGDNKYMHLKVFNGPYKVHQSSGGADRVLTGYQVDKNKDDELTGFHHHHHH
notes: also called HSA-18 monomer

- koff [24]: 0.00245 s⁻¹
- kon [24]: 116000 M⁻¹ s⁻¹
- kon [25]: 166000 M⁻¹ s⁻¹
- koff [26]: 0.00218 s⁻¹
- kon [26]: 118000 M⁻¹ s⁻¹
- EC50 (read off the curve) [1]: ~1 nM
- EC50 (read off the curve) [2]: ~2 nM
- Kd [8]: 21.1 nM
- Kd [9]: 3.7 nM
- Kd [10]: 18.5 nM
- koff [27]: 0.00317 s⁻¹
- kon [27]: 208000 M⁻¹ s⁻¹
- koff [28]: 0.000575 s⁻¹
- kon [28]: 176000 M⁻¹ s⁻¹
- koff [29]: 0.0037 s⁻¹
- kon [29]: 44600 M⁻¹ s⁻¹
- Kd [11]: 15.3 nM
- Kd [12]: 3.3 nM
- Kd [13]: 83 nM
- EC50 (read off the curve) [14]: ~0.04 nM
- EC50 (read off the curve) [30]: ~0.06 nM
- EC50 (read off the curve) [17]: ~0.6 nM
- EC50 (read off the curve) [31]: ~9 nM
- EC50 [18]: 2.6 nM
- EC50 [19]: 0.47 nM
- EC50 [32]: 0.03 nM
- EC50 [20]: 0.43 nM
- EC50 [33]: 0.25 nM
- EC50 [21]: 3.17 nM
- EC50 [22]: 0.39 nM
- EC50 [23]: 211 nM
B2: HSA-31 (designed binder)
chain: MIPRGLSEAKPATPEIQEIVDKVKPQLEEKTNETYGKLEAVQYKTQVLAVWGPEYQHQSTNYYIKVRAGDNKYMHLKVFNGPNAGWPLVPEADRVLTGYQVDKNKDDELTGFHHHHHH

- binding result [34]: no binding
B3: HSA-41 x9 glycine loops (designed binder)
chain: MIPRGLSEAKPATPEIQEIVDKVKPQLEEKTNETYGKLEAVQYKTQVLANFFQRRWPGSTNYYIKVRAGDNKYMHLKVFNGPGGGGGGGGGADRVLTGYQVDKNKDDELTGFHHHHHH
notes: also called HSA-41 loop 4 replaced with 9 glycine residues; loop 4 knockout mutant

- Kd [35]: 0.298 nM
- koff [35]: 0.000159 s⁻¹
- kon [35]: 534000 M⁻¹ s⁻¹
- Kd [3]: 31.1 nM
- koff [3]: 0.00308 s⁻¹
- kon [3]: 98800 M⁻¹ s⁻¹
- Kd [7]: 113 nM
- koff [7]: 0.0337 s⁻¹
- kon [7]: 297000 M⁻¹ s⁻¹
- EC50 [36]: 8.8 nM
- EC50 [37]: 60.8 nM
- Kd [16]: 325 nM
- koff [16]: 0.00758 s⁻¹
- kon [16]: 23300 M⁻¹ s⁻¹
B4: AVA04-251 XT61 (designed binder)
chain: MIPRGLSEAKPATPEIQEIVDKVKPQLEEKTNETYGKLEAVQYKTQVLAREGRQDWVLSTNYYIKVRAGDNKYMHLKVFNGPWVPFPHQQLADRVLTGYQVDKNKDDELTGFAEAAAKEAAAKEAAAKEAAAKEAAAKEAAAKMIPRGLSEAKPATPEIQEIVDKVKPQLEEKTNETYGKLEAVQYKTQVLADWWQAKWPHSTNYYIKVRAGDNKYMHLKVFNGPYKVHQSSGGADRVLTGYQVDKNKDDELTGFAEAAAKEAAAKEAAAKEAAAKEAAAKEAAAKMIPRGLSEAKPATPEIQEIVDKVKPQLEEKTNETYGKLEAVQYKTQVLAREGRQDWVLSTNYYIKVRAGDNKYMHLKVFNGPWVPFPHQQLADRVLTGYQVDKNKDDELTGFHHHHHH

- binding result [34]: no binding
B5: HSA-41 loop 4 deletion (designed binder)
chain: MIPRGLSEAKPATPEIQEIVDKVKPQLEEKTNETYGKLEAVQYKTQVLANFFQRRWPGSTNYYIKVRAGDNKYMHLKVFNGPADRVLTGYQVDKNKDDELTGFHHHHHH
notes: also called loop 4 knockout mutant (deletion)
